Reference: PMC3153955

System: C[C@@H]1O[C@@H]1P(=O)(O)O
Assay: pyruvate kinase-lactate dehydrogenase coupled assay
Assay type: biochemical, Streptomyces wedmorensis
Details: 1 mM ATP, 10 mM MgCl2, 100 mM KCl, pH 7.2, 25 °C

FomA (fosfomycin resistance kinase FomA) (Streptomyces wedmorensis)
Km: 9.9 ± 0.7 µM
kcat: 155.9 ± 1.5 s⁻¹
